Experimental data from the supplement of paper PMC11246515.
± gives the standard deviation of the averaged measurements.

Test: total protein half-life in vivo (active degradation + dilution); higher = more stable protein
[1] = E. coli NCM3722 delta-clpP delta-lon delta-hslV, growth: N-lim chemostat, doubling time 6 h
[2] = E. coli NCM3722 delta-clpP, growth: N-lim chemostat, doubling time 6 h
[3] = E. coli NCM3722 delta-hslV, growth: N-lim chemostat, doubling time 6 h
[4] = E. coli NCM3722 delta-smpB, growth: N-lim chemostat, doubling time 6 h
[5] = wild type E. coli NCM3722, growth: C-lim chemostat, doubling time 3 h
[6] = wild type E. coli NCM3722, growth: C-lim chemostat, doubling time 6 h
[7] = wild type E. coli NCM3722, growth: C-lim chemostat, doubling time 12 h
[8] = wild type E. coli NCM3722, growth: N-lim chemostat, doubling time 6 h
[9] = wild type E. coli NCM3722, growth: N-lim chemostat, doubling time 12 h
[10] = wild type E. coli NCM3722, growth: P-lim chemostat, doubling time 6 h
[11] = wild type E. coli NCM3722, growth: P-lim chemostat, doubling time 12 h
[12] = E. coli NCM3722 delta-lon, growth: N-lim chemostat, doubling time 6 h

Sequence	total protein half-life in vivo [1]	total protein half-life in vivo [2]	total protein half-life in vivo [3]	total protein half-life in vivo [4]	total protein half-life in vivo [5]	total protein half-life in vivo [6]	total protein half-life in vivo [7]	total protein half-life in vivo [8]	total protein half-life in vivo [9]	total protein half-life in vivo [10]	total protein half-life in vivo [11]	total protein half-life in vivo [12]
MTSPNILLTRIDNRLVHGQVGVTWTSTIGANLLVVVDDVVANDDIQQKLMGITAETYGFGIRFFTIEKTINVIGKAAPHQKIFLICRTPQTVRKLVEGGIDLKDVNVGNMHFSEGKKQISSKVYVDDQDLTDLRFIKQRGVNVFIQDVPGDQKEQIPD	5.94 ± 1 h	3.82 ± 0.62 h	4.08 ± 0.26 h	4.01 ± 0.37 h	3.52 ± 0.3 h	5.07 ± 0.32 h	6.95 ± 0.34 h	3.67 h	6.28 ± 0.71 h	4.28 ± 1.7 h	11 ± 0.5 h	
MTTDQHQEILRTEGLSKFFPGVKALDNVDFSLRRGEIMALLGENGAGKSTLIKALTGVYHADRGTIWLEGQAISPKNTAHAQQLGIGTVYQEVNLLPNMSVADNLFIGREPKRFGLLRRKEMEKRATELMASYGFSLDVREPLNRFSVAMQQIVAICRAIDLSAKVLILDEPTASLDTQEVELLFDLMRQLRDRGVSLIFVTHFLDQVYQVSDRITVLRNGSFVGCRETCELPQIELVKMMLGRELDTHALQRAGRTLLSDKPVAAFKNYGKKGTIAPFDLEVRPGEIVGLAGLLGSGRTETAEVIFGIKPADSGTALIKGKPQNLRSPHQASVLGIGFCPEDRKTDGIIAAASVRENIILALQAQRGWLRPISRKEQQEIAERFIRQLGIRTPSTEQPIEFLSGGNQQKVLLSRWLLTRPQFLILDEPTRGIDVGAHAEIIRLIETLCADGLALLVISSELEELVGYADRVIIMRDRKQVAEIPLAELSVPAIMNAIAA [Q6BEX0]	4.28 h	6.33 ± 1.2 h	4.45 h	5.51 h	3 ± 0.35 h	6.5 ± 0.63 h	10.7 ± 0.33 h		9.4 h	5.93 ± 0.44 h	11 ± 1.1 h	
MTTETRSLYSQLPAIDRLLRDSSFLSLRDTYGHTRVVELLRQMLDEAREVIRGSQTLPAWCENWAQEVDARLTKEAQSALRPVINLTGTVLHTNLGRALQAEAAVEAVAQAMRSPVTLEYDLDDAGRGHRDRALAQLLCRITGAEDACIVNNNAAAVLLMLAATASGKEVVVSRGELVEIGGAFRIPDVMRQAGCTLHEVGTTNRTHANDYRQAVNENTALLMKVHTSNYSIQGFTKAIDEAELVALGKELDVPVVTDLGSGSLVDLSQYGLPKEPMPQELIAAGVSLVSFSGDKLLGGPQAGIIVGKKEMIARLQSHPLKRALRADKMTLAALEATLRLYLHPEALSEKLPTLRLLTRSAEVIQIQAQRLQAPLAAHYGAEFAVQVMPCLSQIGSGSLPVDRLPSAALTFTPHDGRGSHLESLAARWRELPVPVIGRIYDGRLWLDLRCLEDEQRFLEMLLK [P0A821]	6.33 ± 0.17 h	6.19 ± 0.19 h	5.62 ± 1 h	5.49 ± 0.32 h	3.16 ± 0.51 h		11.7 ± 0.94 h	5.64 ± 0.39 h	10.6 ± 1 h	6.06 ± 0.4 h	11.9 ± 1.1 h	5.86 ± 0.47 h
MTTHDRVRLQLQALEALLREHQHWRNDEPQPHQFNSTQPFFMDTMEPLEWLQWVLIPRMHDLLDNKQPLPGAFAVAPYYEMALATDHPQRALILAELEKLDALFADDAS	5.66 ± 0.27 h			3.91 h	2.09 h	4.97 ± 0.19 h	11.8 ± 5.3 h	3.394 ± 0.03 h	6.93 h	3.49 ± 1.9 h	7.56 ± 1.8 h	
MTTIVDSNLPVARPSWDHSRLESRIVHLGCGAFHRAHQALYTHHLLESTDSDWGICEVNLMPGNDRVLIENLKKQQLLYTVAEKGAESTELKIIGSMKEALHPEIDGCEGILNAMARPQTAIVSLTVTEKGYCADAASGQLDLNNPLIKHDLENPTAPKSAIGYIVEALRLRREKGLKAFTVMSCDNVRENGHVAKVAVLGLAQARDPQLAAWIEENVTFPCTMVDRIVPAATPETLQEIADQLGVYDPCAIACEPFRQWVIEDNFVNGRPDWDKVGAQFVADVVPFEMMKLRMLNGSHSFLAYLGYLGGYETIADTVTNPAYRKAAFALMMQEQAPTLSMPEGTDLNAYATLLIERFSNPSLRHRTWQIAMDGSQKLPQRLLDPVRLHLQNGGSWRHLALGVAGWMRYTQGVDEQGNAIDVVDPMLAEFQKINAQYQGADRVKALLGLSGIFADDLPQNADFVGAVTAAYQQLCERGARECVAAL	4.94 ± 2.6 h	3.08 ± 0.24 h	3.228 ± 0.01 h	2.96 ± 0.24 h	2.91 ± 0.27 h	4.32 ± 0.52 h	7.28 ± 2.2 h	3.33 ± 0.044 h	6.19 ± 2.3 h	5.28 ± 0.23 h	9.27 ± 0.21 h	3.47 ± 0.17 h
MTTKKADYIWFNGEMVRWEDAKVHVMSHALHYGTSVFEGIRCYDSHKGPVVFRHREHMQRLHDSAKIYRFPVSQSIDELMEACRDVIRKNNLTSAYIRPLIFVGDVGMGVNPPAGYSTDVIIAAFPWGAYLGAEALEQGIDAMVSSWNRAAPNTIPTAAKAGGNYLSSLLVGSEARRHGYQEGIALDVNGYISEGAGENLFEVKDGVLFTPPFTSSALPGITRDAIIKLAKELGIEVREQVLSRESLYLADEVFMSGTAAEITPVRSVDGIQVGEGRCGPVTKRIQQAFFGLFTGETEDKWGWLDQVNQ [P0AB80]	4.699 ± 0.033 h	4.25 ± 1.3 h	3.48 ± 0.06 h	3.75 ± 0.1 h	3.24 ± 0.089 h	5.63 ± 0.072 h	10.9 ± 0.13 h	3.49 ± 0.13 h	5.36 ± 0.066 h	5.65 ± 0.27 h	10.9 ± 0.95 h	4.94 ± 1.1 h
MTTKNMNTPPGSTQENEIDLLRLVGELWDHRKFIISVTALFTLIAVAYSLLSTPIYQADTLVQVEQKQGNAILSGLSDMIPNSSPESAPEIQLLQSRMILGKTIAELNLRDIVEQKYFPIVGRGWARLTKEKPGELAISWMHIPQLNGQDQQLTLTVGENGHYTLEGEEFTVNGMVGQRLEKDGVALTIADIKAKPGTQFVLSQRTELEAINALQETFTVSERSKESGMLELTMTGDDPQLITRILNSIANNYLQQNIARQAAQDSQSLEFLQRQLPEVRSELDQAEEKLNVYRQQRDSVDLNLEAKAVLEQIVNVDNQLNELTFREAEISQLYKKDHPTYRALLEKRQTLEQERKRLNKRVSAMPSTQQEVLRLSRDVEAGRAVYLQLLNRQQELSISKSSAIGNVRIIDPAVTQPQPVKPKKALNVVLGFILGLFISVGAVLARAMLRRGVEAPEQLEEHGISVYATIPMSEWLDKRTRLRKKNLFSNQQRHRTKNIPFLAVDNPADSAVEAVRALRTSLHFAMMETENNILMITGATPDSGKTFVSSTLAAVIAQSDQKVLFIDADLRRGYSHNLFTVSNEHGLSEYLAGKDELNKVIQHFGKGGFDVITRGQVPPNPSELLMRDRMRQLLEWANDHYDLVIVDTPPMLAVSDAAVVGRSVGTSLLVARFGLNTAKEVSLSMQRLEQAGVNIKGAILNGVIKRASTAYSYGYNYYGYSYSEKE	4.74 ± 1.7 h				1.74 ± 0.34 h	3.3 h	7.46 h			1.53 ± 0.24 h		
MTTLKLDTLSDRIKAHKNALVHIVKPPVCTERAQHYTEMYQQHLDKPIPVRRALALAHHLANRTIWIKHDELIIGNQASEVRAAPIFPEYTVSWIEKEIDDLADRPGAGFAVSEENKRVLHEVCPWWRGQTVQDRCYGMFTDEQKGLLATGIIKAEGNMTSGDAHLAVNFPLLLEKGLDGLREEVAERRSRINLTVLEDLHGEQFLKAIDIVLVAVSEHIERFAALAREMAATETRESRRDELLAMAENCDLIAHQPPQTFWQALQLCYFIQLILQIESNGHSVSFGRMDQYLYPYYRRDVELNQTLDREHAIEMLHSCWLKLLEVNKIRSGSHSKASAGSPLYQNVTIGGQNLVDGQPMDAVNPLSYAILESCGRLRSTQPNLSVRYHAGMSNDFLDACVQVIRCGFGMPAFNNDEIVIPEFIKLGIEPQDAYDYAAIGCIETAVGGKWGYRCTGMSFINFARVMLAALEGGHDATSGKVFLPQEKALSAGNFNNFDEVMDAWDTQIRYYTRKSIEIEYVVDTMLEENVHDILCSALVDDCIERAKSIKQGGAKYDWVSGLQVGIANLGNSLAAVKKLVFEQGAIGQQQLAAALADDFDGLTHEQLRQRLINGAPKYGNDDDTVDTLLARAYQTYIDELKQYHNPRYGRGPVGGNYYAGTSSISANVPFGAQTMATPDGRKAHTPLAEGASPASGTDHLGPTAVIGSVGKLPTAAILGGVLLNQKLNPATLENESDKQKLMILLRTFFEVHKGWHIQYNIVSRETLLDAKKHPDQYRDLVVRVAGYSAFFTALSPDAQDDIIARTEHML	4.17 h											
